Experimental findings from patent publication US20220175781A1, “CD40L COMPOSITIONS AND METHODS FOR TUNABLE REGULATION” (Obsidian Therapeutics, Inc., priority 2019, published 2022) are described below.

One test has as its system HEK293T cells. The experiment in a line: Soluble CD40L ELISA, transiently transfected HEK293T cells. In kind it is cell-based, human. As to conditions: HEK293T cells. The protocol:
Soluble CD40L (sCD40L) constructs OT-001672, OT-001686, OT-001673, OT-001674, OT-001677, and OT-001684 were transiently transfected into HEK293T cells. Cells were treated with one of the following ligands 1 μM Shield-1, 50 μM TMP, 1 μM Bazedoxifene (BZD) or vehicle control.
The pg/mL levels of soluble CD40L were measured by ELISA (Table 14). Recombinant soluble CD40L was used as the standard in the experiments.
For orientation: An ELISA detects its analyte on a solid surface through an enzyme-linked reagent.

The test system of another test is HEK-Blue CD40. The experiment in a line: HEK-Blue CD40 assay with sCD40L constructs. It counts as cell-based. The conditions noted are these: ligand treated.
The next test has as its system T cells (CD4+ and CD8+). The experiment in a line: Regulation of CD40L in T cells by different drug responsive domains. In kind it is cell-based.
Another test relates to HEK 293T cells. The experiment in a line: hDHFR regulated CD40L surface expression, HEK 293T cells (flow cytometry). In kind it is cell-based, human. The conditions noted are these: 50 μM TMP 24 hours. The method, then: HEK 293T cells were transiently […] with hDHFR regulated constructs namely OT-001962, OT-001961, OT-001963 for 24 hours. Following transfection, cells were treated with 50 μM TMP for 24 hours and CD40L cell surface expression was measured using flow cytometry. […] CD40L expression in the absence of ligand was virtually undetectable.
A general note: In flow cytometry, cells or beads pass a laser one at a time.

In the next test the test system is Jurkat cells. The experiment in a line: DHFR regulated CD40L expression, transduced Jurkat cells (flow cytometry). In kind it is cell-based. The method, then: Jurkat cells were transduced with lentiviruses corresponding to OT-001662, OT-001962, OT-001961, OT-001963. 24 hours after transduction, cells were split and treated with DMSO or 50 μM TMP for another 24 hours until flow cytometry-based analysis. The results are shown in Table 37 where SR indicates stabilization ration.

The subject of test [1] is T cells (CD4 and CD8 positive). The experiment in a line: TMP dose response of OT-001962, CD40L MFI in CD4 and CD8 positive T cells. In kind it is cell-based. The protocol: Dose response with TMP in T cells were conducted for OT-001962. Expression of CD40L was measured at (a) day 4 after transduction, (b) after freezing and thawing the cells or (c) after freezing and thawing the cells followed by restimulation with CD3/CD28 beads.

The target of a further test is CD40 (UniProt P25942). The experiment in a line: cell-based or functional assay.
A further test deals with HEK-Blue™ CD40 cells. The experiment in a line: HEK-Blue CD40 SEAP reporter co-culture with transduced Jurkat cells. In kind it is cell-based. As to conditions: ligand 24 h (1 μM Shield-1, 50 μM TMP or 1 μM Bazedoxifene), recombinant soluble CD40L as standard. The method, then:
Jurkat cells transduced with OT-001661, OT-001685, OT-001662, OT-001666, or OT-001667 were co-cultured with HEK-Blue™ CD40 cells (Invivogen, San Diego, Calif.). Cocultures were treated with ligands (1 μM Shield-1, 50 μM TMP, 1 μM Bazedoxifene (BZD) or vehicle control) for 24 hours and the secreted embryonic alkaline phosphatase (SEAP) reporter levels were measured in the media. All vehicle treated samples had background SEAP activity. Recombinant soluble CD40L was used as the standard in the experiments.

Sequence of CD40 (P25942 21-277 limits assumed): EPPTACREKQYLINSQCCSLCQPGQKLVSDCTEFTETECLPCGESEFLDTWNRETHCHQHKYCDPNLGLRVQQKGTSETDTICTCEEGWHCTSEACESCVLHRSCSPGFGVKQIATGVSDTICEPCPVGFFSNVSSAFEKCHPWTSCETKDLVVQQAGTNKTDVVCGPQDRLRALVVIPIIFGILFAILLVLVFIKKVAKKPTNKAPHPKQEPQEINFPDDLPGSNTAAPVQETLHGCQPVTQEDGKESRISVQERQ

B1: OT-001673: Soluble CD40L (sCD40L) construct (protein)
chain: GSSGISLIAALAVDYVIGMENAMPWNLPADLAWFKRNTLNKPVIMGRHTWESIGRPLPGRKNIILSSQPGTDDRVTWVKSVDEAIAACGDVPEIMVIGGGRVIEQFLPKAQKLYLTHIDAEVEGDTHFPDYEPDDWESVFSEFHDADAQNSHSYCFEILERRGSMHMQKGDQNPQIAAHVISEASSKTTSVLQWAEKGYYTMSNNLVTLENGKQLTVKRQGLYYIYAQVTFCSNREASSQAPFIASLCLKSPGRFERILLRAANTHSSAKPCGQQSIHLGGVFELQPGASVFVNVTDPSQVSHGTGFTSFGLLKL
With B1, the “ligand dependent regulation of soluble CD40L levels” value in the test on HEK293T cells (ELISA) is listed as “ligand dependent regulation”. For the same molecule, in the test with HEK-Blue CD40, the “functionality in HEK-Blue CD40 assay” value is listed as “higher functionality”.

B2: OT-001962: hDHFR regulated CD40L construct (protein)
chain: MVGSLNCIVAVSQNMGIGKNGDLPWPPLRNEFRYFERMTTTSSVEGKQNLVIMGKKTWFSIPEKNRPLKGRINLVLSRELKEPPQGAHFLSRSLDDALKLTEHPELANKVDMVWIVGGSSVIKEAMNHPGHLKLFVTRIMQDFESDTFFPEIDLEKYKLLPEYPGVLSDVQEEKGIKYKFEVYEKNDHMIETYNQTSPRSAATGLPISMKIFMYLLTVFLITQMIGSALFAVYLHRRLDKIEDERNLHEDFVFMKTIQRCNTGERSLSLLNCEEIKSQFEGFVKDIMLNKEETKKENSFEMQKGDQNPQIAAHVISEASSKTTSVLQWAEKGYYTMSNNLVTLENGKQLTVKRQGLYYIYAQVTFCSNREASSQAPFIASLCLKSPGRFERILLRAANTHSSAKPCGQQSIHLGGVFELQPGASVFVNVTDPSQVSHGTGFTSFGLLKL
As to B2, the CD40L positive in the test on T cells (CD4+ and CD8+) (All Cells, 100 uM TMP) came out at 71.6%; with T cells (CD4+ and CD8+) (All Cells, DMSO), 46.5%; in the test with T cells (CD4+ and CD8+) (CD4+, 100 uM TMP), 83.5%; in the test with T cells (CD4+ and CD8+) (CD4+, DMSO), 58.3%; with T cells (CD4+ and CD8+) (CD8+, 100 uM TMP) it was 32.1%; in the test with T cells (CD4+ and CD8+) (CD8+, DMSO), 4.1%. Further, the MFI with T cells (CD4+ and CD8+) (All Cells, 100 uM TMP) stood at 1109; in the test with T cells (CD4+ and CD8+) (All Cells, DMSO), 434; in the test with T cells (CD4+ and CD8+) (CD4+, 100 uM TMP), 1468; in the test with T cells (CD4+ and CD8+) (CD4+, DMSO), 548; with T cells (CD4+ and CD8+) (CD8+, 100 uM TMP), 455; in the test with T cells (CD4+ and CD8+) (CD8+, DMSO), 157. Further, the “% CD40L” value in the test with HEK 293T cells is listed as 14.3%. Moreover, the “stabilization ratio, ranking among the hDHFR constructs” value in the test with Jurkat cells (50 μM TMP versus DMSO) is on record as “highest stabilization ratio”. Also, the TMP dependent regulation result with Jurkat cells (50 μM TMP versus DMSO 24 hours) is given as “strong TMP dependent regulation”. The figures for the “% CD40L expression” value with Jurkat cells (TMP (50 μM)) and with Jurkat cells (Vehicle (DMSO)) were 50% and 3%, respectively. The molecule further yielded an SR with Jurkat cells (TMP (50 μM) versus Vehicle) of 16.7. Further, the “CD40L expression (MFI)” value amounted to 388 in test [1] (CD4+, Day 4, TMP 0.1 nM); 396 in test [1] (CD4+, Day 4, TMP 1 nM); 405 in test [1] (CD4+, Day 4, TMP 10 nM); 388 in test [1] (CD4+, Day 4, TMP 100 nM); 480 in test [1] (CD4+, Day 4, TMP 1000 nM); 1067 in test [1] (CD4+, Day 4, TMP 10000 nM). Moreover, the “CD40L expression (MFI)” value turned out to be 5917 in test [1] (CD4+, Day 4, TMP 100000 nM); 153 in test [1] (CD4+, Post Thaw, TMP 0.1 nM); 156 in test [1] (CD4+, Post Thaw, TMP 1 nM); 158 in test [1] (CD4+, Post Thaw, TMP 10 nM); 165 in test [1] (CD4+, Post Thaw, TMP 100 nM); 166 in test [1] (CD4+, Post Thaw, TMP 1000 nM). Moreover, the “CD40L expression (MFI)” value is on record as 186 in test [1] (CD4+, Post Thaw, TMP 10000 nM); 395 in test [1] (CD4+, Post Thaw, TMP 100000 nM); 631 in test [1] (CD4+, Restim, TMP 0.1 nM); 647 in test [1] (CD4+, Restim, TMP 1 nM); 645 in test [1] (CD4+, Restim, TMP 10 nM); 644 in test [1] (CD4+, Restim, TMP 100 nM). Further, the “CD40L expression (MFI)” value is 737 in test [1] (CD4+, Restim, TMP 1000 nM); 1382 in test [1] (CD4+, Restim, TMP 10000 nM); 6275 in test [1] (CD4+, Restim, TMP 100000 nM); 181 in test [1] (CD8+, Day 4, TMP 0.1 nM); 178 in test [1] (CD8+, Day 4, TMP 1 nM); 182 in test [1] (CD8+, Day 4, TMP 10 nM). Besides, the “CD40L expression (MFI)” value is reported as 182 in test [1] (CD8+, Day 4, TMP 100 nM); 204 in test [1] (CD8+, Day 4, TMP 1000 nM); 393 in test [1] (CD8+, Day 4, TMP 10000 nM); 1941 in test [1] (CD8+, Day 4, TMP 100000 nM); 111 in test [1] (CD8+, Post Thaw, TMP 0.1 nM); 116 in test [1] (CD8+, Post Thaw, TMP 1 nM). For the same molecule, the “CD40L expression (MFI)” value was 114 in test [1] (CD8+, Post Thaw, TMP 10 nM); 117 in test [1] (CD8+, Post Thaw, TMP 100 nM); 118 in test [1] (CD8+, Post Thaw, TMP 1000 nM); 129 in test [1] (CD8+, Post Thaw, TMP 10000 nM); 236 in test [1] (CD8+, Post Thaw, TMP 100000 nM); 254 in test [1] (CD8+, Restim, TMP 0.1 nM). The “CD40L expression (MFI)” value turned out to be 257 in test [1] (CD8+, Restim, TMP 1 nM); 258 in test [1] (CD8+, Restim, TMP 10 nM); 255 in test [1] (CD8+, Restim, TMP 100 nM); 258 in test [1] (CD8+, Restim, TMP 1000 nM); 382 in test [1] (CD8+, Restim, TMP 10000 nM); 1185 in test [1] (CD8+, Restim, TMP 100000 nM).

B3: OT-001667 (Met; ER (aa 305-549 of WT, T371A, L384M, M421G, N519S, G521R, Y537S); Histidine; CD40L; stop) (ligand)
chain: MSLALSLTADQMVSALLDAEPPILYSEYDPTRPFSEASMMGLLTNLADRELVHMINWAKRVPGFVDLALHDQVHLLECAWMEILMIGLVWRSMEHPGKLLFAPNLLLDRNQGKCVEGGVEIFDMLLATSSRFRMMNLQGEEFVCLKSIILLNSGVYTFLSSTLKSLEEKDHIHRVLDKITDTLIHLMAKAGLTLQQQHQRLAQLLLILSHIRHMSSKRMEHLYSMKCKNVVPLSDLLLEMLDAHRLHMIETYNQTSPRSAATGLPISMKIFMYLLTVFLITQMIGSALFAVYLHRRLDKIEDERNLHEDFVFMKTIQRCNTGERSLSLLNCEEIKSQFEGFVKDIMLNKEETKKENSFEMQKGDQNPQIAAHVISEASSKTTSVLQWAEKGYYTMSNNLVTLENGKQLTVKRQGLYYIYAQVTFCSNREASSQAPFIASLCLKSPGRFERILLRAANTHSSAKPCGQQSIHLGGVFELQPGASVFVNVTDPSQVSHGTGFTSFGLLKL
On to B3, for which the SEAP reporter of HEK-Blue CD40 cells co-cultured 24 hours with transduced Jurkat cells plus 1 µM Bazedoxifene, given as Soluble CD40L (pg/ml) against a recombinant soluble CD40L standard in the test with CD40 amounted to 2570 pg/mL. The “Soluble CD40L” value with HEK-Blue™ CD40 cells turned out to be 2565.91 pg/mL.

B4: OT-001672: Soluble CD40L (sCD40L) construct (protein)
chain: GSMHMQKGDQNPQIAAHVISEASSKTTSVLQWAEKGYYTMSNNLVTLENGKQLTVKRQGLYYIYAQVTFCSNREASSQAPFIASLCLKSPGRFERILLRAANTHSSAKPCGQQSIHLGGVFELQPGASVFVNVTDPSQVSHGTGFTSFGLLKL
For B4, the “Stabilization Ratio” value with HEK293T cells (soluble CD40L +Ligand versus Vehicle) is reported as 3.3. Moreover, in the test with HEK-Blue CD40, the “functionality in HEK-Blue CD40 assay” value was “higher functionality”.
